Laboratory results reported in patent US20260242730A1 (POINTLOMA BIOSCIENCES, published 2026).

T1: human TROP2 (antigen of panning and clone screening) (human, UniProt P09758 27-274, limits assumed)
T1 construct: also called human TROP2-His protein; TROP2-expressing CHOK1 cells
T1 sequence (looked up): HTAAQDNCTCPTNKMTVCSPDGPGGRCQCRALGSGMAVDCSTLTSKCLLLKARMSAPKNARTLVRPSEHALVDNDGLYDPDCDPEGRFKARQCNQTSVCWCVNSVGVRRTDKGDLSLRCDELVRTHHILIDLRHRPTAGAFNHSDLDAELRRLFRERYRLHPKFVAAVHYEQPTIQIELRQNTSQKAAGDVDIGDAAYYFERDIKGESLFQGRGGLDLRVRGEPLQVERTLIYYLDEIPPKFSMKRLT

T2: recombinant human TROP2 protein (human, UniProt P09758 27-274)
T2 chain: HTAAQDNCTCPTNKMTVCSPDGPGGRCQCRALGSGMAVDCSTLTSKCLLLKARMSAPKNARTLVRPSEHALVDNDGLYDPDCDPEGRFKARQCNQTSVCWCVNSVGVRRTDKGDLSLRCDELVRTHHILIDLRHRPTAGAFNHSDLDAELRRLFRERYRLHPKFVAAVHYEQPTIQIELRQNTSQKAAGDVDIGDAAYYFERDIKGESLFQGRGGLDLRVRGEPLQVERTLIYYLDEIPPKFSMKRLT


target: T1, human TROP2 (antigen of panning and …); assay: positive phage clones from panning on human TROP2-His protein or on TROP2-expressing CHOK1 cells, ELISA
Source text: After confirming successful immunization with TROP2 protein, PBMC was isolated and used for construction of a phage display library with the size of 2.42×10⁹ cfu. TROP2 VHH binders were isolated from the phage display library using solid phase panning on human TROP2-His protein and cell-based panning on the engineered, TROP2-expressing CHOK1 cells in two parallel discovery campaigns. […] Stringency was increased during successive rounds by decreasing antigen concentration, increasing the number and duration of washes, and/or changing the duration of selections. The positively identified phages were diluted and spread on a petri dish to grow single colonies. Individual phage clones were selected and amplified. […] After three rounds of screening on TROP2 CHOK1 cells, a total of 384 clones were selected, of which 163 clones were TROP2-specific as tested by ELISA. After sequencing the positive clones, 9 unique sequences were obtained based on amino acid sequences. In combination, a total of 20 unique sequences were identified.

Binder	binding result
anti-TROP2 #TP6 VHH (VHH) VHH: QLQLVESGGGLVQPGGSLRLSCAASGTLDYWTVGWFRQAPGKEREGVSCISSSDSSTYYADSVKGRFTISRDNAKNTVYLQMNSLKPEDTAVYYCAAGSLGYCSRSTPQYEYDFWGQGTQVTVSS	binds
anti-TROP2 #TP9 VHH (VHH) VHH: QVQLVESGGGLVQPGGSLRLSCAASGFSLDYWAIAWFRQAPGKEREGVSCSGSRGSTHYADSVKGRFTISRDNAKNTVYLQMNSLKPEDAGVYYCAVGSTLYSLTPYEYDYWGQGTQVTVSS	binds
anti-TROP2 #TP10 VHH (VHH) VHH: QVQLVESGGGLVQPGGSLRLSCAASGFRLDHWAIGWFRQAPGKEREGVSCSGSDESTYYADSVKGRFTISRDNAKNTVYLQMNSLKPEDTGVYYCAVGSTWYSLTPYEYDYWGQGTQVTVSS	binds
anti-TROP2 #TP20 VHH (VHH) VHH: EVQVVESGGGLVQPGGSLRLSCAASGNIKSTAVMGWHRQAPGKEREWVAIITTGEDRFSGDRLQYADSVKDRFTISRDNAKNTVYLQMNSLKPEDTAVYYCNVDVLYMADGRYARSEFWGQGTQVTVSS	binds
anti-TROP2 #TP18 VHH (VHH) VHH: QVQLVESGGGLVQPGGSLRLSCAASSSIFSIAIMGWYRQAPGKQRELVATISATDVTHYADSVKGRFTISRDDAWNAVYLQMDSLKAEDTAVYYCNSYLLQQRVPWGQGTQVTVSS	binds
anti-TROP2 #TP1 VHH (VHH) VHH: EVQVVESGGGLAQPGGSLRLSCAASGFWFSTYAMSWARQAPGKGLEWVSGIYADGSATYYADSVKGRFTISRDNAKNTLYLHMNSLKPEDTALYYCAQGYSDYDRRVGGYDYWGQGTQVTVSS	binds
anti-TROP2 #TP15 VHH (VHH) VHH: QVQLVESGGGLVQPGGSLRLSCAVSGDIFSFYSMGWYRQAPGEQRELVAHITSGGSTHYADSVKGRFTISRDNAKNTVYLQMNSPKPEDTAVYYCNADLDYWVDSMGPYWGQGTQVTVSS	binds
anti-TROP2 #TP5 VHH (VHH) VHH: QLQLVESGGGLVQPGGSLKLSCAASGFTLDYWTIGWFRQAPGKEREGVSCISSSDGSTYYADSVKGRFTISRDNAKRTVNLQMNSLKPEDTAVYYCAAGSLGYCSRSTPQYEYDFWGQGTQVTVSS	binds
anti-TROP2 #TP17 VHH (VHH) VHH: EVQLVESGGGMVQPGGSLRLSCAFSGLTFSNYAMTWYRQAPGKERELVAGTPSPGGTTTYADSVKGRFTISRDNAEDTVYLQMNSLKPEDTAVYYCHARWMWPSDNAGMGYWGKGTLVTVSS	binds
anti-TROP2 #TP16 VHH (VHH) VHH: QVQLVESGGGLVQPGGSLRLSCAASGFAFSFYVMTWYRQAPGKQREQVAAITSYGGANYADSVKGRFTISRDNAKNTVYLQMNALTSEDTAVYSCNAHLGPYDYWGQGTQVTVSS	binds

Further lines, results first:

binding result	Binder
binds	anti-TROP2 #TP12 VHH (VHH) VHH: QVQLVESGGGLVQPGGSLRLSCAASRFTLDYYAIGWIRQAPGKEREGVSCISSSGGSTNYADSVKGRFTISRDNAKNTVYLQMNSLKPEDTGVYYCAATTYACSGYVPRAYEYDYWGQGTQVTVSS
binds	anti-TROP2 #TP14 VHH (VHH) VHH: EVQVVESGGGLVQPGGSLRLSCAVSGFTLDWYAIGWFRQAPGKEHEGVACIDPSERSTYADPVKGRFTISRDNAKNTVHLQMNSLKPEDTAVYYCAADTLPCFFYGSMWPPPDNWGQGTQVTVSS
binds	anti-TROP2 #TP19 VHH (VHH) VHH: EVQVVESGGGLVQPGGSLRLSCAASRSVFNIAIMGWYRQAPGKQRELVASISATDVTSYADSVKGRFTISRDDAWNAVYLQMDSLKSEDTAVYYCNSYLLQQRVPWGQGTQVTVSS
binds	anti-TROP2 #TP2 VHH (VHH) VHH: EVQLVESGGGLAQPGGSLRLSCAASGFTFSTYAMSWARQAPGKGLEWVSGIYADGSGTYYADSVKGRFTISRDNAKNTLYLQMNSLKPEDTALYYCAQGYSDYDRRLGEYDYWGQGTQVTVSS
binds	anti-TROP2 #TP4 VHH (VHH) VHH: QLQLVESGGGLVQPGGSLRLSCAASGFTLDDYAMRWFRQAPGKAREGVSCISRSDGTTYYADSVKGRFTISRNNAENTVYLQMNSLKPEDTAVYYCAADSLGCNGYSDWGVDYWAKGTLVTVSS
binds	anti-TROP2 #TP8 VHH (VHH) VHH: QLQLVESGGGLVQPGGSLRLSCAASGFTLDYWTIGWFRQAPGKEREGVSCVSSSGGITYYADSVKGRFTISRDNEKRTVYLQMNSLKPEDTAVYYCAAGSLGYCSRSTPQYEYDYWGQGTQVTVSS
binds	anti-TROP2 #TP7 VHH (VHH) VHH: QLQLVESGGGLVQPGGSLRLSCAASGFSLEHWTIGWFRQAPGKEREGVSCISSSDASTYYADSVKGRFTISRDNAKKSVYLQMNSLKLEDTAVYYCAAGSLGYCSRSTPQYEYDYWGQGTQVTVSS
binds	anti-TROP2 #TP11 VHH (VHH) VHH: QVQLVESGGGLVQPGGSLRVSCAASGFRLDYYAIGWFRQAPGKEREGVSSINYSSGSTVYADSVKGRFTISRGNAKNTVYLQMNSLKPEDTAVYYCAVGTVVTSLAPYEYDYWGQGTQVTVSS
binds	anti-TROP2 #TP13 VHH (VHH) VHH: EVQLVESGGGLVQPGGSLRLSCALSGFTKDYYGIGWFRQAPGKEREGVSCISVSGSSTNYADSVKGRFTISRDNAKNTVYLQMNSLKPEDTGVYYCAAAFMGSDYVVPEMSREYDYWGQGTQVTVSS

Target: T2, recombinant human TROP2 protein
Assay: binding of TROP2 protein to binder-expressing γδ T cells

Binder	EC50 [nM]
TROP2 CAR with anti-TROP2 VHH #TP2, on γδ T cells (other) EVQLVESGGGLAQPGGSLRLSCAASGFTFSTYAMSWARQAPGKGLEWVSGIYADGSGTYYADSVKGRFTISRDNAKNTLYLQMNSLKPEDTALYYCAQGYSDYDRRLGEYDYWGQGTQVTVSSTTTPAPRPPTPAPTIASQPLSLRPEACRPAAGGAVHTRGLDFACDIYIWAPLAGTCGVLLLSLVITLYCKRGRKKLLYIFKQPFMRPVQTTQEEDGCSCRFPEEEEGGCELRVKFSRSADAPAYQQGQNQLYNELNLGRREEYDVLDKRRGRDPEMGGKPRRKNPQEGLYNELQKDKMAEAYSEIGMKGERRRGKGHDGLYQGLSTATKDTYDALHMQALPPR	3.43
TROP2 CAR with anti-TROP2 VHH #TP12, on γδ T cells (other) QVQLVESGGGLVQPGGSLRLSCAASRFTLDYYAIGWIRQAPGKEREGVSCISSSGGSTNYADSVKGRFTISRDNAKNTVYLQMNSLKPEDTGVYYCAATTYACSGYVPRAYEYDYWGQGTQVTVSSTTTPAPRPPTPAPTIASQPLSLRPEACRPAAGGAVHTRGLDFACDIYIWAPLAGTCGVLLLSLVITLYCKRGRKKLLYIFKQPFMRPVQTTQEEDGCSCRFPEEEEGGCELRVKFSRSADAPAYQQGQNQLYNELNLGRREEYDVLDKRRGRDPEMGGKPRRKNPQEGLYNELQKDKMAEAYSEIGMKGERRRGKGHDGLYQGLSTATKDTYDALHMQALPPR	14.4

More lines, now with the values ahead:

EC50 [nM]	Binder
3.65	TROP2 CAR with anti-TROP2 VHH #TP14, on γδ T cells (other) EVQVVESGGGLVQPGGSLRLSCAVSGFTLDWYAIGWFRQAPGKEHEGVACIDPSERSTYADPVKGRFTISRDNAKNTVHLQMNSLKPEDTAVYYCAADTLPCFFYGSMWPPPDNWGQGTQVTVSSTTTPAPRPPTPAPTIASQPLSLRPEACRPAAGGAVHTRGLDFACDIYIWAPLAGTCGVLLLSLVITLYCKRGRKKLLYIFKQPFMRPVQTTQEEDGCSCRFPEEEEGGCELRVKFSRSADAPAYQQGQNQLYNELNLGRREEYDVLDKRRGRDPEMGGKPRRKNPQEGLYNELQKDKMAEAYSEIGMKGERRRGKGHDGLYQGLSTATKDTYDALHMQALPPR
17.7	TROP2 CAR with anti-TROP2 VHH #TP6, on γδ T cells (other) QLQLVESGGGLVQPGGSLRLSCAASGTLDYWTVGWFRQAPGKEREGVSCISSSDSSTYYADSVKGRFTISRDNAKNTVYLQMNSLKPEDTAVYYCAAGSLGYCSRSTPQYEYDFWGQGTQVTVSSTTTPAPRPPTPAPTIASQPLSLRPEACRPAAGGAVHTRGLDFACDIYIWAPLAGTCGVLLLSLVITLYCKRGRKKLLYIFKQPFMRPVQTTQEEDGCSCRFPEEEEGGCELRVKFSRSADAPAYQQGQNQLYNELNLGRREEYDVLDKRRGRDPEMGGKPRRKNPQEGLYNELQKDKMAEAYSEIGMKGERRRGKGHDGLYQGLSTATKDTYDALHMQALPPR
18.1	TROP2 CAR with anti-TROP2 VHH #TP9, on γδ T cells (other) QVQLVESGGGLVQPGGSLRLSCAASGFSLDYWAIAWFRQAPGKEREGVSCSGSRGSTHYADSVKGRFTISRDNAKNTVYLQMNSLKPEDAGVYYCAVGSTLYSLTPYEYDYWGQGTQVTVSSTTTPAPRPPTPAPTIASQPLSLRPEACRPAAGGAVHTRGLDFACDIYIWAPLAGTCGVLLLSLVITLYCKRGRKKLLYIFKQPFMRPVQTTQEEDGCSCRFPEEEEGGCELRVKFSRSADAPAYQQGQNQLYNELNLGRREEYDVLDKRRGRDPEMGGKPRRKNPQEGLYNELQKDKMAEAYSEIGMKGERRRGKGHDGLYQGLSTATKDTYDALHMQALPPR
